Measurements reported in publication PMC10746525.

Columns and labels:
GCN4-TRAK1_(342-431) [1] = target: GCN4-TRAK1_(342-431) (UniProt Q9UPV9); assay: ITC; VP-ITC, 25 °C; ITC buffer (20 mM Hepes pH 7.5, 400 mM NaCl, 1 mM MgCl2, 5% w/v sucrose, 0.1 μM GTP) with 50 μM CaCl2; MIRO1_(177-591) in the syringe, TRAK1 construct in the cell
GCN4-TRAK1_(342-431) [2] = target: GCN4-TRAK1_(342-431) (UniProt Q9UPV9); assay: ITC; VP-ITC, 25 °C; ITC buffer (20 mM Hepes pH 7.5, 400 mM NaCl, 1 mM MgCl2, 5% w/v sucrose, 0.1 μM GTP) with 5 mM EGTA; the binder of each row in the syringe

Chain of MIRO1_(177-591) (Q8IXI2 177-591): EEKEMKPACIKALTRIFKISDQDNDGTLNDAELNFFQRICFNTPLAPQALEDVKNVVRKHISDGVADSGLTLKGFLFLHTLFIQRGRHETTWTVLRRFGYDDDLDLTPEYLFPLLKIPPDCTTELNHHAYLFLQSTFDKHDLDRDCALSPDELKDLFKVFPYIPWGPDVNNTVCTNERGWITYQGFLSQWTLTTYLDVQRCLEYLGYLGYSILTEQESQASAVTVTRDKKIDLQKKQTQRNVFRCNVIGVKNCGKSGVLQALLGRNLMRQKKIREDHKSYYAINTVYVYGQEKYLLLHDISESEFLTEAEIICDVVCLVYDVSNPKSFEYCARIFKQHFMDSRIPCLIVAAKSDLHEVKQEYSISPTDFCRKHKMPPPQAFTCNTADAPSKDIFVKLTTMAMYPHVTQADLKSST

- Kd (GCN4-TRAK1_(342-431) [1]): 7.04 µM
- stoichiometry N (GCN4-TRAK1_(342-431) [1]): 1.93
- Kd (GCN4-TRAK1_(342-431) [2]): 5.13 µM
- stoichiometry N (GCN4-TRAK1_(342-431) [2]): 1.84
Substance: MIRO1_(177-591) (from UniProt Q8IXI2 177-591) (domain or fragment)
